Measured values: patent publication US10428140B2, “Anti-EphA4 antibody” (EISAI R&D MANAGEMENT CO., LTD., priority 2015, dated 2019)
Numbering of substitutions follows the chain as printed.

T1: human EphA6 (Homo sapiens, UniProt Q9UF33)
T1 construct: a protein of the extracellular region of each human Eph receptor fused with the SEAP protein and the His tag; made in house; host or cells: Expi293F cells (culture supernatant)
T1 sequence (Q9UF33 23-550 limits assumed): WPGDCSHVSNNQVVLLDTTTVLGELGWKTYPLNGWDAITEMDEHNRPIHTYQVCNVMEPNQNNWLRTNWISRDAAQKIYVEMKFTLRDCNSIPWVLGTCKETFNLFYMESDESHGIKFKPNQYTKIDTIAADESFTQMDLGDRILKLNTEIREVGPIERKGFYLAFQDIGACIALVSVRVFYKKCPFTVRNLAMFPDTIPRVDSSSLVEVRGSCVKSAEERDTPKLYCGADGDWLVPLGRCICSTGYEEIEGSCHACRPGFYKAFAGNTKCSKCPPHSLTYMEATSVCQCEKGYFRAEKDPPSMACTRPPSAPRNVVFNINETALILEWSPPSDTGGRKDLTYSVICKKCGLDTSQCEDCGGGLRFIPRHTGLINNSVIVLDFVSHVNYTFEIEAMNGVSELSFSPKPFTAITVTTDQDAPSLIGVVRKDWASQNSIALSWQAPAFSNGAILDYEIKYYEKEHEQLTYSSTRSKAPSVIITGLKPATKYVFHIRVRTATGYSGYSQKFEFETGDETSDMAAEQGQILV

T2: human EphA1 (Homo sapiens, UniProt P21709)
T2 construct: a protein of the extracellular region of each human Eph receptor fused with the SEAP protein and the His tag; made in house; host or cells: Expi293F cells (culture supernatant)
T2 sequence (P21709 26-547 limits assumed): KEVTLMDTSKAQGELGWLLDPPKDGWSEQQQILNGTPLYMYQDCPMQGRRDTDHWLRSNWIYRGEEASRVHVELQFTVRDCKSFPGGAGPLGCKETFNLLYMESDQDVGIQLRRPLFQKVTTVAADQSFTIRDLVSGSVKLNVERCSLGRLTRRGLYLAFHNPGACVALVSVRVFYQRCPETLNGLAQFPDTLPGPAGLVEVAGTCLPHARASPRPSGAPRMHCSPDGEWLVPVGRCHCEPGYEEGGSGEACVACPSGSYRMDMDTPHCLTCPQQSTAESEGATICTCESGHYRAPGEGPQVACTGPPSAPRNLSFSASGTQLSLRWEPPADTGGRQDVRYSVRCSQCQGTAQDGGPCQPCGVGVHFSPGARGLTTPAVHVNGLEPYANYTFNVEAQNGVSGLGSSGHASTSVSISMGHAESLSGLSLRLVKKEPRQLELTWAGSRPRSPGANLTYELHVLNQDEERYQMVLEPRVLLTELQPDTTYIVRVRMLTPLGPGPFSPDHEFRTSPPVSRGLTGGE

T3: human EphA8 (Homo sapiens, UniProt P29322)
T3 construct: a protein of the extracellular region of each human Eph receptor fused with the SEAP protein and the His tag; made in house; host or cells: Expi293F cells (culture supernatant)
T3 sequence (P29322 28-542 limits assumed): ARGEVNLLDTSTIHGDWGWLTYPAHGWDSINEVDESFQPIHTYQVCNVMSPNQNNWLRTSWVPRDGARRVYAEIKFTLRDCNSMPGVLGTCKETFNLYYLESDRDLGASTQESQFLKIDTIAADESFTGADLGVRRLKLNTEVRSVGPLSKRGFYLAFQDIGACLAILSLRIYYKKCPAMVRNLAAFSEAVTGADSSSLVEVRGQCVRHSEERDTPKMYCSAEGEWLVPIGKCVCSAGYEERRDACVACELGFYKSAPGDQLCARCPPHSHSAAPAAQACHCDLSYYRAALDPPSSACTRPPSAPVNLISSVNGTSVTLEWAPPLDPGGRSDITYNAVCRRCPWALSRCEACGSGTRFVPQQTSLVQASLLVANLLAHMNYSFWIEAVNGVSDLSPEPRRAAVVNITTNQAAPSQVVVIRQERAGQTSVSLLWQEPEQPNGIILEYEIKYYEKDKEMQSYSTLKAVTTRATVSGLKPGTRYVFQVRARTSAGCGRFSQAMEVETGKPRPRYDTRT

B1: 134 (antibody, V domains shown)
VH: QVQLVQSGSELKKPGASVKVSCKASGYTFTDYSMHWVRQAPGQGLKWMGWINTETGEPTYAQGFTGRFVFSLDTSVSTAYLQISSLKAEDTAVYYCARIPLYYYGSRYWYFDVWGQGTTVTVSS
VL: EIVMTQSPATLSVSPGERATLSCRASENIYRNLAWYQQKPGQSPRLLIYAATNLADGIPARFSGSGSGTEYTLTISSLQSEDFAVYYCQHFWGTPWTFGQGTKVEIK
modifications: synthetic humanized antibody heavy chain variable region sequence; synthetic humanized antibody light chain variable region sequence
B2: 132 (antibody, V domains shown)
VH: B1 VH with V2I
VL: B1 VL
modifications: synthetic humanized antibody heavy chain variable region sequence; synthetic humanized antibody light chain variable region sequence
B3: 135 (antibody, V domains shown)
VH: B1 VH with K46E, Q62D, G63D, T65K
VL: B1 VL
modifications: synthetic humanized antibody heavy chain variable region sequence; synthetic humanized antibody light chain variable region sequence
B4: 75 (antibody)
VH: B1 VH with K46E
VL: DIQMTQSPSSLSASVGDRVTITCRASENIYRNLAWYQQKPGKAPKLLVYAATNLADGVPSRFSGSGSGTDYTLTISSLQPEDFATYYCQHFWGTPWTFGQGTKVEIK
chain: ASTKGPSVFPLAPSSKSTSGGTAALGCLVKDYFPEPVTVSWNSGALTSGVHTFPAVLQSSGLYSLSSVVTVPSSSLGTQTYICNVNHKPSNTKVDKRVEPKSCDKTHTCPPCPAPPAAAPSVFLFPPKPKDTLMISRTPEVTCVVVDVSHEDPEVQFNWYVDGVEVHNAKTKPREEQFNSTFRVVSVLTVVHQDWLNGKEYKCKVSNKGLPAPIEKTISKTKGQPREPQVYTLPPSREEMTKNQVSLTCLVKGFYPSDIAVEWESNGQPENNYKTTPPMLDSDGSFFLYSKLTVDKSRWQQGNVFSCSVMHEALHNHYTQKSLSLSPG
modifications: synthetic humanized antibody heavy chain variable region sequence; synthetic humanized antibody light chain variable region sequence; synthetic antibody constant region sequence

What follows are molecules tested against T1, human EphA6 (assay: Selectivity ELISA of humanized antibodies for human Eph receptor). Conditions: coated protein 1 nM.
Format: binding
Procedure, shortened: (§1)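 Read-out is A450 after TMB development stopped with 1N H2SO4. Plates bore anti-His-captured human Eph extracellular region-SEAP-His proteins at 1 nM final, made in Expi293F cells. Humanized antibody binding ran 1 h at room temperature before HRP-labeled anti-IgG detection.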

With B1 as the molecule, how does the “hEphA6-SEAP-: absorbance at 450 nm, percentage with respect to hEphA4-SEAP-His as 100%” value read?
Its value is 9.6%.

For B2, which “hEphA6-SEAP-: absorbance at 450 nm, percentage with respect to hEphA4-SEAP-His as 100%” value is on record?
The value was 9.7%.

With B3 as the molecule, how does the “hEphA6-SEAP-: absorbance at 450 nm, percentage with respect to hEphA4-SEAP-His as 100%” value read?
The value was 7.0%.

Which “hEphA6-SEAP-: absorbance at 450 nm, percentage with respect to hEphA4-SEAP-His as 100%” value does the source give for B4 here?
The value was 8.3%.

Each molecule was assayed against T4, human EphA2 (Homo sapiens, UniProt P29317) in the same assay as above. Conditions: coated protein 1 nM.
T4 construct: a protein of the extracellular region of each human Eph receptor fused with the SEAP protein and the His tag; made in house; host or cells: Expi293F cells (culture supernatant)
T4 sequence (P29317 24-537 limits assumed): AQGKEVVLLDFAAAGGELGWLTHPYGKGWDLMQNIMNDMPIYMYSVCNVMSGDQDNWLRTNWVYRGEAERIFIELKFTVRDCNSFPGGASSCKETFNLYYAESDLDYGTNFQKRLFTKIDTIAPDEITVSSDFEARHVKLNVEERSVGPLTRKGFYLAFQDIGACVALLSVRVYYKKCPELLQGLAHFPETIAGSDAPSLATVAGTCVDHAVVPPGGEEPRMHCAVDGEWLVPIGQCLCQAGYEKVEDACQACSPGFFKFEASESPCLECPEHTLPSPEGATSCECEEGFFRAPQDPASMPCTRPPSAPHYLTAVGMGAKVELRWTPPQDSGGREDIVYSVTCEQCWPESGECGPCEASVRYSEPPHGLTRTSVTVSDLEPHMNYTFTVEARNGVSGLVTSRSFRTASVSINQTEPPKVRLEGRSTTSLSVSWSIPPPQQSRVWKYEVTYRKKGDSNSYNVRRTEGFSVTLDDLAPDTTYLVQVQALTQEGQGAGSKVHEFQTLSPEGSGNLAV
Format: binding
Procedure, shortened: as §1

Which “hEphA2-SEAP-: absorbance at 450 nm, percentage with respect to hEphA4-SEAP-His as 100%” value does the source give for B1 here?
Its value is 5.0%.

B2 was tested. Which “hEphA2-SEAP-: absorbance at 450 nm, percentage with respect to hEphA4-SEAP-His as 100%” value did it give?
Its value is 4.8%.

Which “hEphA2-SEAP-: absorbance at 450 nm, percentage with respect to hEphA4-SEAP-His as 100%” value does the source give for B3 here?
The value was 5.0%.

Which “hEphA2-SEAP-: absorbance at 450 nm, percentage with respect to hEphA4-SEAP-His as 100%” value does the source give for B4 here?
The value was 4.6%.

What follows are molecules tested against T2, human EphA1 in the same assay as above. Conditions: coated protein 1 nM.
Format: binding
Procedure, shortened: as §1

B1 was tested. Which “hEphA1-SEAP-: absorbance at 450 nm, percentage with respect to hEphA4-SEAP-His as 100%” value did it give?
Its value is 5.1%.

For B2, which “hEphA1-SEAP-: absorbance at 450 nm, percentage with respect to hEphA4-SEAP-His as 100%” value is on record?
Its value is 4.8%.

With B3 as the molecule, how does the “hEphA1-SEAP-: absorbance at 450 nm, percentage with respect to hEphA4-SEAP-His as 100%” value read?
The value was 5.2%.

How did the “hEphA1-SEAP-: absorbance at 450 nm, percentage with respect to hEphA4-SEAP-His as 100%” value turn out when B4 was run?
Its value is 4.7%.

What follows are molecules tested against T3, human EphA8 in the same assay as above. Conditions: coated protein 1 nM.
Format: binding
Procedure, shortened: as §1

Which “hEphA8-SEAP-: absorbance at 450 nm, percentage with respect to hEphA4-SEAP-His as 100%” value does the source give for B1 here?
Its value is 5.7%.

Which “hEphA8-SEAP-: absorbance at 450 nm, percentage with respect to hEphA4-SEAP-His as 100%” value does the source give for B2 here?
The value was 4.7%.

B3 was tested. Which “hEphA8-SEAP-: absorbance at 450 nm, percentage with respect to hEphA4-SEAP-His as 100%” value did it give?
Its value is 5.0%.

Which “hEphA8-SEAP-: absorbance at 450 nm, percentage with respect to hEphA4-SEAP-His as 100%” value does the source give for B4 here?
Its value is 4.8%.

The molecules below were run against T5, human EphA4 (Homo sapiens, UniProt P54764) in the same assay as above. Conditions: coated protein 1 nM; reference set to 100%.
T5 construct: made in house; not restated for the human SEAP-His protein
T5 sequence (P54764 20-547): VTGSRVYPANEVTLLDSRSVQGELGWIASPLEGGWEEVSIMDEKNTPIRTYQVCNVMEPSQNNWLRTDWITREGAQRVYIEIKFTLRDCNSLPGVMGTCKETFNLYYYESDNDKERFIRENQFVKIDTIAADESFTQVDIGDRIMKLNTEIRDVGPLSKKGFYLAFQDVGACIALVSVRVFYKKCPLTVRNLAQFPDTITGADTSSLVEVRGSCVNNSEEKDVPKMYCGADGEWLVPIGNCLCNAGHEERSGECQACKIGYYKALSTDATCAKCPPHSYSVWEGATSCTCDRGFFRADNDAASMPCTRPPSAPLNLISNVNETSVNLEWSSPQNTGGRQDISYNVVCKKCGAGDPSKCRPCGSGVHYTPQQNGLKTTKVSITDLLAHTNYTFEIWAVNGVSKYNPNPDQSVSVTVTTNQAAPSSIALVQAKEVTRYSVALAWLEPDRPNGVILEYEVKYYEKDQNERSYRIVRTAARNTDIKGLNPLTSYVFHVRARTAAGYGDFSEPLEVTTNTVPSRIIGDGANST
Format: binding
Procedure, shortened: as §1

For B1, which “hEphA4-SEAP-: absorbance at 450 nm, percentage with respect to hEphA4-SEAP-His as 100%” value is on record?
Its value is 100%.

For B2, which “hEphA4-SEAP-: absorbance at 450 nm, percentage with respect to hEphA4-SEAP-His as 100%” value is on record?
The value was 100%.

With B3 as the molecule, how does the “hEphA4-SEAP-: absorbance at 450 nm, percentage with respect to hEphA4-SEAP-His as 100%” value read?
Its value is 100%.

With B4 as the molecule, how does the “hEphA4-SEAP-: absorbance at 450 nm, percentage with respect to hEphA4-SEAP-His as 100%” value read?
The value was 100%.
